What all share (assay): cell-based or functional assay
The target in assay [1] is human GCG receptor (human, UniProt P47871 26-477).
Assay [2] deals with T1, human GIP receptor (human, UniProt P48546 22-466).
T1 sequence (looked up): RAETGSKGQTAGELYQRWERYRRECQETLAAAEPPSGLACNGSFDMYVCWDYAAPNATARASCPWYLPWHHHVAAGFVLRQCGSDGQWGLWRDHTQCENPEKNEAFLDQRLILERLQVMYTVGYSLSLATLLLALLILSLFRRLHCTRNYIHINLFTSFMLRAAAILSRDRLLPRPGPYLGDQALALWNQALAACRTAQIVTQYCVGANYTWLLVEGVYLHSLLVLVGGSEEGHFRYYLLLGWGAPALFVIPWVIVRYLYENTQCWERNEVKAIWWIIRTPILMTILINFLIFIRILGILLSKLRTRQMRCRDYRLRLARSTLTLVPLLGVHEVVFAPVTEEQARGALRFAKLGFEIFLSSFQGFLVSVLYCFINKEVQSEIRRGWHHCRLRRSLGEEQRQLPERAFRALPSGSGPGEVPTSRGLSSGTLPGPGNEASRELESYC

Assay [3] deals with human GLP-1 receptor (human, UniProt P43220 24-463).

Data on 14 molecules can be found in patent US20250114463A1, “LIVER-TARGETED DRUG AND USE THEREOF” (HANMI PHARM. CO., LTD., priority 2021, published 2025).

Numbering of substitutions follows the chain as printed. Bridges are numbered along the chain shown (N, C = ends). Where no end group is shown, it is not given here. [ ]: non-standard residue; d: D form. The star is where a group is joined. Acetyl(2-(4-imidazolyl)) = O=C(Cc1c[nH]cn1)*; Aib = CC(C)(N)C(=O)O Bounds are passed on as bounds.

Sequence of human GCG receptor (P47871 26-477): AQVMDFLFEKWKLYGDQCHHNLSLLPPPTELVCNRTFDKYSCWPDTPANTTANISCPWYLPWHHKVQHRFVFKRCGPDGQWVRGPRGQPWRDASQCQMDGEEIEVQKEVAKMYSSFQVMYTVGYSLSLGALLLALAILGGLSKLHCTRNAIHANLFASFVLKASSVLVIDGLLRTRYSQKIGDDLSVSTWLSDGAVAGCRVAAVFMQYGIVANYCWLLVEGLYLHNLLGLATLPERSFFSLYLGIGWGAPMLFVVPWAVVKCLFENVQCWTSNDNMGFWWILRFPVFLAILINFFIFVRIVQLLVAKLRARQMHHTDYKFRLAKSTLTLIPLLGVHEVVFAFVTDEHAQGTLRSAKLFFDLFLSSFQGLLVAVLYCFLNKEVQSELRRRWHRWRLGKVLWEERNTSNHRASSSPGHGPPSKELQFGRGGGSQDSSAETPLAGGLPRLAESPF

As for Y[Aib]QGTFTSDYSKCLDEKRAKEFVQWLLDHHPSSGQPPPS-NH2 (bridge 16-20) [triple agonist of SEQ ID NO: 22], the “in vitro Activity Compared to Native Peptide (%), vs Glucagon” value in assay [1] is 140%. Besides, the “in vitro Activity Compared to Native Peptide (%), vs GIP” value in assay [2] stood at 59.7%. Besides, the “in vitro Activity Compared to Native Peptide (%), vs GLP-1” value in assay [3] is 20.1%.
Taken in the same sequence, the figures for [Acetyl(2-(4-imidazolyl))]GQGTFTSDLSIQYDSEHQRDFIEWLKDTGPSSGAPPPSHG-NH2 [triple agonist of SEQ ID NO: 19] were < 0.1%, < 0.1% and < 0.1%.
For the molecule Y[Aib]QGTFTSDYSKYLDECRAKEFVQWLLAQKGKKNDWKHNIT (bridge 16-20; not fully specified (C-terminus)) [triple agonist of SEQ ID NO: 23], in assay [1], the “in vitro Activity Compared to Native Peptide (%), vs Glucagon” value is 9.3%. In addition, in assay [2], the “in vitro Activity Compared to Native Peptide (%), vs GIP” value is < 0.1%. In addition, in assay [3], the “in vitro Activity Compared to Native Peptide (%), vs GLP-1” value worked out at 4.01%.
Consider [Acetyl(2-(4-imidazolyl))]GQGTFTSDYSIQLDEIAVRDFVEWLKNGGPSSGAPPPSHG-NH2 [triple agonist of SEQ ID NO: 14], for which the “in vitro Activity Compared to Native Peptide (%), vs Glucagon” value in assay [1] was < 0.1%. For the same molecule, the “in vitro Activity Compared to Native Peptide (%), vs GIP” value in assay [2] is < 0.1%. In assay [3], the “in vitro Activity Compared to Native Peptide (%), vs GLP-1” value amounted to 28%.
On to [Acetyl(2-(4-imidazolyl))]GQGTFTSDLSKQMDEERAREFIEWLLAQKPSSGAPPPSHG-NH2 [triple agonist of SEQ ID NO: 17], for which the “in vitro Activity Compared to Native Peptide (%), vs Glucagon” value in assay [1] was < 0.1%. Further, the “in vitro Activity Compared to Native Peptide (%), vs GIP” value in assay [2] was < 0.1%. The “in vitro Activity Compared to Native Peptide (%), vs GLP-1” value in assay [3] is 0.2%.
With H[Aib]QGTFTSDVSSYLLGQAAKQFIAWLVKGGGPSSGAPPPSC-NH2 [triple agonist of SEQ ID NO: 3], the “in vitro Activity Compared to Native Peptide (%), vs Glucagon” value in assay [1] is < 0.1%. Further, the “in vitro Activity Compared to Native Peptide (%), vs GIP” value in assay [2] is < 0.1%. Moreover, the “in vitro Activity Compared to Native Peptide (%), vs GLP-1” value in assay [3] is 1.8%.
Consider [Acetyl(2-(4-imidazolyl))]GQGTFTSDLSIQYEEEAQQDFVEWLKDTGPSSGAPPPSHG-NH2 [triple agonist of SEQ ID NO: 20], for which, in assay [1], the “in vitro Activity Compared to Native Peptide (%), vs Glucagon” value is < 0.1%. For the same molecule, the “in vitro Activity Compared to Native Peptide (%), vs GIP” value in assay [2] is < 0.1%. Further, the “in vitro Activity Compared to Native Peptide (%), vs GLP-1” value in assay [3] is < 0.1%.
Turning to [Acetyl(2-(4-imidazolyl))]GQGTFTSDLSKQMDSERAREFIEWLKNTGPSSGAPPPSHG-NH2 [triple agonist of SEQ ID NO: 18], the “in vitro Activity Compared to Native Peptide (%), vs Glucagon” value in assay [1] was < 0.1%. Further, the “in vitro Activity Compared to Native Peptide (%), vs GIP” value in assay [2] is < 0.1%. Further, the “in vitro Activity Compared to Native Peptide (%), vs GLP-1” value in assay [3] was < 0.1%.

B1: triple agonist of SEQ ID NO: 25 (peptide)
peptide: HXQGTFTSDCSKYLDERAAQDFVQWLLDGGPSSGAPPPS
HELM: PEPTIDE1{H.[Aib].Q.G.T.F.T.S.D.C.S.K.Y.L.D.E.R.A.A.Q.D.F.V.Q.W.L.L.D.G.G.P.S.S.G.A.P.P.P.S.[am]}$$$$V2.0; N-terminus assumed
SMILES: CC(C)C[C@H](NC(=O)[C@H](CC(C)C)NC(=O)[C@H](Cc1c[nH]c2ccccc12)NC(=O)[C@H](CCC(N)=O)NC(=O)[C@@H](NC(=O)[C@H](Cc1ccccc1)NC(=O)[C@H](CC(=O)O)NC(=O)[C@H](CCC(N)=O)NC(=O)[C@H](C)NC(=O)[C@H](C)NC(=O)[C@H](CCCNC(=N)N)NC(=O)[C@H](CCC(=O)O)NC(=O)[C@H](CC(=O)O)NC(=O)[C@H](CC(C)C)NC(=O)[C@H](Cc1ccc(O)cc1)NC(=O)[C@H](CCCCN)NC(=O)[C@H](CO)NC(=O)[C@H](CS)NC(=O)[C@H](CC(=O)O)NC(=O)[C@H](CO)NC(=O)[C@@H](NC(=O)[C@H](Cc1ccccc1)NC(=O)[C@@H](NC(=O)CNC(=O)[C@H](CCC(N)=O)NC(=O)C(C)(C)NC(=O)[C@@H](N)Cc1c[nH]cn1)[C@@H](C)O)[C@@H](C)O)C(C)C)C(=O)N[C@@H](CC(=O)O)C(=O)NCC(=O)NCC(=O)N1CCC[C@H]1C(=O)N[C@@H](CO)C(=O)N[C@@H](CO)C(=O)NCC(=O)N[C@@H](C)C(=O)N1CCC[C@H]1C(=O)N1CCC[C@H]1C(=O)N1CCC[C@H]1C(=O)N[C@@H](CO)C(N)=O
As to B1, the “in vitro Activity Compared to Native Peptide (%), vs Glucagon” value in assay [1] turned out to be 0.1%. Also, the “in vitro Activity Compared to Native Peptide (%), vs GIP” value in assay [2] was < 0.1%. Besides, the “in vitro Activity Compared to Native Peptide (%), vs GLP-1” value in assay [3] amounted to 82.6%.

B2: triple agonist of SEQ ID NO: 26 (peptide)
peptide: B1 peptide with E16S
HELM: PEPTIDE1{H.[Aib].Q.G.T.F.T.S.D.C.S.K.Y.L.D.S.R.A.A.Q.D.F.V.Q.W.L.L.D.G.G.P.S.S.G.A.P.P.P.S.[am]}$$$$V2.0; N-terminus assumed
SMILES: CC(C)C[C@H](NC(=O)[C@H](CC(C)C)NC(=O)[C@H](Cc1c[nH]c2ccccc12)NC(=O)[C@H](CCC(N)=O)NC(=O)[C@@H](NC(=O)[C@H](Cc1ccccc1)NC(=O)[C@H](CC(=O)O)NC(=O)[C@H](CCC(N)=O)NC(=O)[C@H](C)NC(=O)[C@H](C)NC(=O)[C@H](CCCNC(=N)N)NC(=O)[C@H](CO)NC(=O)[C@H](CC(=O)O)NC(=O)[C@H](CC(C)C)NC(=O)[C@H](Cc1ccc(O)cc1)NC(=O)[C@H](CCCCN)NC(=O)[C@H](CO)NC(=O)[C@H](CS)NC(=O)[C@H](CC(=O)O)NC(=O)[C@H](CO)NC(=O)[C@@H](NC(=O)[C@H](Cc1ccccc1)NC(=O)[C@@H](NC(=O)CNC(=O)[C@H](CCC(N)=O)NC(=O)C(C)(C)NC(=O)[C@@H](N)Cc1c[nH]cn1)[C@@H](C)O)[C@@H](C)O)C(C)C)C(=O)N[C@@H](CC(=O)O)C(=O)NCC(=O)NCC(=O)N1CCC[C@H]1C(=O)N[C@@H](CO)C(=O)N[C@@H](CO)C(=O)NCC(=O)N[C@@H](C)C(=O)N1CCC[C@H]1C(=O)N1CCC[C@H]1C(=O)N1CCC[C@H]1C(=O)N[C@@H](CO)C(N)=O
Regarding B2, the “in vitro Activity Compared to Native Peptide (%), vs Glucagon” value in assay [1] came out at 0.2%. Also, the “in vitro Activity Compared to Native Peptide (%), vs GIP” value in assay [2] was < 0.1%. The “in vitro Activity Compared to Native Peptide (%), vs GLP-1” value in assay [3] worked out at 64.5%.
Taken in the same sequence, the figures for [Acetyl(2-(4-imidazolyl))]GQGTFTSDLSKQMDSEAQQLFIEWLKNGGPSSGAPPPSHG-NH2 [triple agonist of SEQ ID NO: 16] were < 0.1%, < 0.1% and 2.1%.
On to Y[Aib]QGTFTSDYSKYLDECRAKEFVQWLKNGGPSSGAPPPS (bridge 16-20; not fully specified (C-terminus)) [triple agonist of SEQ ID NO: 24], for which the “in vitro Activity Compared to Native Peptide (%), vs Glucagon” value in assay [1] was 9.3%. Also, the “in vitro Activity Compared to Native Peptide (%), vs GIP” value in assay [2] is < 0.1%. Moreover, the “in vitro Activity Compared to Native Peptide (%), vs GLP-1” value in assay [3] worked out at 41.2%.
For the molecule Y[Aib]QGTFTSDYSKYLDECRAKEFVQWLLDHHPSSGQPPPS-NH2 (bridge 16-20; also: ring type not given here) [triple agonist of SEQ ID NO: 21], in assay [1], the “in vitro Activity Compared to Native Peptide (%), vs Glucagon” value was 267%. For the same molecule, in assay [2], the “in vitro Activity Compared to Native Peptide (%), vs GIP” value is 22.7%. The “in vitro Activity Compared to Native Peptide (%), vs GLP-1” value in assay [3] was determined as 17.8%.

B3: triple agonist of SEQ ID NO: 2 (peptide)
peptide: HXQGTFTSDVSSYLDGQAQKEFIAWLVKGC
HELM: PEPTIDE1{H.[Aib].Q.G.T.F.T.S.D.V.S.S.Y.L.D.G.Q.A.Q.K.E.F.I.A.W.L.V.K.G.C.[am]}$$$$V2.0; N-terminus assumed
SMILES: CC[C@H](C)[C@H](NC(=O)[C@H](Cc1ccccc1)NC(=O)[C@H](CCC(=O)O)NC(=O)[C@H](CCCCN)NC(=O)[C@H](CCC(N)=O)NC(=O)[C@H](C)NC(=O)[C@H](CCC(N)=O)NC(=O)CNC(=O)[C@H](CC(=O)O)NC(=O)[C@H](CC(C)C)NC(=O)[C@H](Cc1ccc(O)cc1)NC(=O)[C@H](CO)NC(=O)[C@H](CO)NC(=O)[C@@H](NC(=O)[C@H](CC(=O)O)NC(=O)[C@H](CO)NC(=O)[C@@H](NC(=O)[C@H](Cc1ccccc1)NC(=O)[C@@H](NC(=O)CNC(=O)[C@H](CCC(N)=O)NC(=O)C(C)(C)NC(=O)[C@@H](N)Cc1c[nH]cn1)[C@@H](C)O)[C@@H](C)O)C(C)C)C(=O)N[C@@H](C)C(=O)N[C@@H](Cc1c[nH]c2ccccc12)C(=O)N[C@@H](CC(C)C)C(=O)N[C@H](C(=O)N[C@@H](CCCCN)C(=O)NCC(=O)N[C@@H](CS)C(N)=O)C(C)C
For the molecule B3, in assay [1], the “in vitro Activity Compared to Native Peptide (%), vs Glucagon” value was < 0.1%. The “in vitro Activity Compared to Native Peptide (%), vs GIP” value in assay [2] was < 0.1%. Besides, the “in vitro Activity Compared to Native Peptide (%), vs GLP-1” value in assay [3] is 5.9%.
